# B1: FGF6: fibroblast growth factor 6; recombinant human FGF from R&D Systems, or mouse FGF6 cDNA overexpressed by lentiviral vector (protein)
# chain: KRQRRLYCNVGIGFHLQVLPDGRISGTHEENPYSLLEISTVERGVVSLFGVRSALFVAMNSKGRLYATPSFQEECKFRETLLPNNYNAYESDLYQGTYIALSKYGRVKRGSKVSPIMTVTHFLPRI
# Key:
# [1] = tested on: WT-1 murine brown preadipocytes; experiment: Oil Red O staining of lipid accumulation in WT-1 cells; type: cell-based; settings: WT-1, absence of induction cocktail
# Protocol: Cell culture dishes were washed twice with phosphate-buffered saline and fixed with 10% buffered formalin overnight at 4° C. Cells were then stained for 2 hours at room temperature with a filtered oil red O solution (0.5% oil red O in isopropyl alcohol), washed twice with distilled water, and visualized.
# The effect of FGF6 on differentiation of WT-1 murine brown preadipocytes was also examined. WT-1 cells can be induced to undergo brown adipocyte differentiation, characterized by lipid accumulation and expression of adipogenic and brown fat markers, as described above (Klein et al. (1999) J Biol Chem 274:34795; Tseng et al. (2005) Nat Cell Biol 7:601). WT-1 cells were treated with FGF6 in growth media (DMEM+10% FBS), a vehicle control (“control” or “C” referred to in FIGS. 3A-D), or induction media (“induction” or “I” referred to in FIGS. 3A-D) as described above for seven days. Following the treatment, cells were examined for the color of the culture media in combination with oil Red O staining, expression of adipogenic markers, expression of brown fat markers, immunofluorescent staining of cells with UCP1 and DPAI, and Western blot analysis to determine the presence of UCP1 and β-tubulin. The results are described in FIGS. 3A to 3D.
# mature brown adipocytes = experiment: Glucose uptake in mature brown adipocytes; type: cell-based; settings: vs control
# Protocol: The following glucose uptake assay was used to determine whether FGF6 could impact cellular glucose uptake. Specifically, glucose uptake was monitored in WT-1 brown preadipocytes and 3T3-F442A white preadipocytes in the presence or absence of FGF6. After serum starvation in DMEM/H medium containing 1% of BSA for 2-3 h, cells were washed with HEPES buffer and then incubated with or without 100 nM insulin for 30 min in DMEM/H medium containing 1% of BSA. Glucose transport was determined by the addition of 2-deoxy-[3H]glucose (0.1 mM, 0.5 μCi/mL; PerkinElmer Life and Analytical Science, Waltham, Mass.). […] Cells were then lysed in 0.1% SDS, and glucose uptake was assessed in 4 mL of scintillant using Beckman LS6500 scintillation counter (Beckman Coulter, Indianapolis Ind.). Nonspecific 2-deoxy-[3H]glucose uptake was measured in the presence of cytochalasin B (20 μM) and was subtracted from the total uptake to get specific glucose uptake. Results were expressed as the mean±s.e.m. of the indicated number of experiments. The protein content was determined by the Bradford method.
# To assess mitochondrial respiration, a Seahorse Extracellular Flux Analyzer (Seahorse Bioscience Inc., North Billerica, Mass.) was used to quantify oxygen consumption rates (OCR) of differentiated human brown adipocytes. […] After adipogenic induction for 8 days, OCR was analyzed. […]
# UCP1 and PTGS2 [2] = experiment: UCP1 and PTGS2 mRNA in WT-1 cells undergoing adipocyte differentiation; type: cell-based, murine; settings: after induction media; 200 ng/mL FGF or 3.3 nM BMP7, 2 days
# Protocol: In a separate experiment investigating the ability of FGF proteins to induce UCP1 expression in cells undergoing adipocyte differentiation, WT-1 preadipocyte cells were differentiated by culturing in growth media supplemented with insulin (20 nM) and triiodothyronine (T3, 1 nM) for 3 days, followed by incubation in an induction media (growth medium supplemented 20 nM insulin, 1 nM T3, 0.5 mM isobutyl-methylxanthine, 5 μM dexamethasone) for 2 days. The cell were then exposed to BMP7 (3.3 nM) or 200 ng/mL of FGF2, FGF6 or, FGF9 in growth media supplemented with insulin (20 nM) and triodothyronine (T3, 1 nM) for 2 additional days. Cells were harvested and UCP1 and PTGS2 mRNA expression levels were determined according to the quantitative RT-PCR assay described above. Experiments were performed in triplicate and the data presented as mean+/−SEM.
# UCP1 and PTGS2 [3] = experiment: UCP1 and PTGS2 mRNA in WT-1 cells differentiated with BMP7; type: cell-based, murine; settings: 200 mg/mL FGF6 for 32 hours after 8 days BMP7; vs vehicle
# Protocol: WT-1 preadipocyte cells were exposed to 3.3 nM BMP7 in growth media (DMEM-high glucose, 10% FBS, supplemented with 20 nM insulin and 1 nM triiodothyronine (T3)) for 8 days in order to induce differentiation of the adipocytes (Tseng Y. H. et al., (2008) Nature 454(7207):1000-1004). Following day 8 of treatment, the cells were exposed to […] of FGF6 protein, or vehicle control, in growth media for 32 hours. Cells were then collected, and UCP1 and PTGS2 mRNA expression levels were determined according to the quantitative RT-PCR assay described above.
# [4] = tested on: 3T3-F442A white preadipocytes; experiment: 2-deoxy-[3H]glucose uptake in 3T3-F442A white preadipocytes; type: cell-based; settings: FGF6 overexpressing vs control and EGF
# Protocol: The following glucose uptake assay was used to determine whether FGF6 could impact cellular glucose uptake. Specifically, glucose uptake was monitored in WT-1 brown preadipocytes and 3T3-F442A white preadipocytes in the presence or absence of FGF6. After serum starvation in DMEM/H medium containing 1% of BSA for 2-3 h, cells were washed with HEPES buffer and then incubated with or without 100 nM insulin for 30 min in DMEM/H medium containing 1% of BSA. Glucose transport was determined by the addition of 2-deoxy-[3H]glucose (0.1 mM, 0.5 μCi/mL; PerkinElmer Life and Analytical Science, Waltham, Mass.). After 5 minutes of incubation, the reaction was stopped by ice-cold PBS and cells were washed twice with ice-cold PBS. Cells were then lysed in 0.1% SDS, and glucose uptake was assessed in 4 mL of scintillant using Beckman LS6500 scintillation counter (Beckman Coulter, Indianapolis Ind.). Nonspecific 2-deoxy-[3H]glucose uptake was measured in the presence of cytochalasin B (20 μM) and was subtracted from the total uptake to get specific glucose uptake. Results were expressed as the mean±s.e.m. of the indicated number of experiments. The protein content was determined by the Bradford method.
# LDHA, PDK1, PKM2 = experiment: LDHA, PDK1 and PKM2 mRNA expression in WT-1 cells; type: cell-based, murine; settings: WT-1, 24 hours; vs vehicle
# Protocol: To test the role of specific prostaglandins (PGs) in activating UCP1 expression, WT-1 brown adipocytes were pretreated with PGE2, PGI2 and FGF6 for 24 hours. mRNA expression levels of UCP1, PTGS2, LDHA, PDK1 and PKM2 were then measured.
molecule,measurement,setting,value
B1,lipid accumulation by Oil Red O staining,[1],very little to no lipid accumulation
same,glucose uptake in mature brown adipocytes,mature brown adipocytes,enhanced
same,PTGS2 mRNA expression in cells undergoing adipocyte differentiation,UCP1 and PTGS2 [2],able to induce
same,UCP1 mRNA expression in cells undergoing adipocyte differentiation,UCP1 and PTGS2 [2],able to induce
same,PTGS2 levels in cells differentiated using BMP7,UCP1 and PTGS2 [3],increased
same,UCP1 expression in cells differentiated using BMP7,UCP1 and PTGS2 [3],induced UCP1 expression
same,glucose uptake level in F442A (white) preadipocytes,[4],increased
same,LDHA mRNA expression,"LDHA, PDK1, PKM2",increase
same,PDK1 mRNA expression,"LDHA, PDK1, PKM2",increase
same,PKM2 mRNA expression,"LDHA, PDK1, PKM2",increase
